Assay [1] deals with T1, extracellular domain of cyno ILT3 (cynoILT3-ECD) (cynomolgus monkey).
T1 chain: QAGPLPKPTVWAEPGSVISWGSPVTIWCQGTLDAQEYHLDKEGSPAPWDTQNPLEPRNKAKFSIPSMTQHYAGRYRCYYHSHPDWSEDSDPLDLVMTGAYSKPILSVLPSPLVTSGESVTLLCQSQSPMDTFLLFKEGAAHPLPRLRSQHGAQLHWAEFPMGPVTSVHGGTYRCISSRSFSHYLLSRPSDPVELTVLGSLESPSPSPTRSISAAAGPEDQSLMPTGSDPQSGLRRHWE
In words: SPR (Biacore), antibody captured via anti-Fc on CM5 chip, soluble ILT3-ECD injected, 37 C. As for the experimental part:
(§1) The binding affinities of anti-ILT3 antibodies to human ILT3 and cyno ILT3 were measured using a Biacore system (GE Healthcare LifeSciences). Briefly, anti-Fc antibody (Sigma-Aldrich) was immobilized on all four flow cells of a CM5 chip using amine coupling reagents (GE Healthcare LifeSciences). Antibodies were captured on flow cells 2, 3, and 4 using flow cell 1 as a reference. Concentrations ranging from 3.3-10 nM of human or cyno ILT3-ECD were injected at a flow rate of 50 μL/min at 37° C. Kinetic data were collected over time and fit using the simultaneous global fit equation to yield affinity constants (KD values) for each antibody.

Assay [2] deals with T2, extracellular domain of human ILT3 (huILT3-ECD) (human, UniProt Q8NHJ6 22-259).
T2 construct: also called human ILT3-ECD
The assay is described as above. As for the experimental part: as §1

For assay [3], the target named is T1, extracellular domain of cyno ILT3 …. Nature of the assay: SPR (Biacore), antibody captured via anti-Fc on CM5 chip, soluble ILT3-ECD injected. As for the experimental part:
as §1
(§2) The binding affinities of various Hz48A6 and Hz45G10 antibodies to human ILT3 and cyno ILT3 were also determined using a Biacore system as described herein. Humanized antibodies comprising various combinations of a heavy chain variable region and a light chain variable region and a human Fc domain were tested, and compared with the binding affinity of the parental chimeric antibody (48A6 chimera comprising mouse 48A6 heavy and light variable regions and a human Fc domain, or 45G10 chimera comprising mouse 45G10 heavy and light variable regions and a human Fc domain).
On the technique in general: SPR reads the build-up and loss of mass on a sensor chip optically.

The target in assay [4] is T2, extracellular domain of human ILT3 …. The description is as above. As for the experimental part: as §1, §2

B1: anti-ILT3 antibody 3A3 (antibody, V domains shown)
VH: QVQLKESGPGLVAPSQSLSITCTVSGFSLTSYGVHWVRQPPGKGLEWLGVIWPGGTINYNSALMSRLSISKDNSKSQVFLKLNSLQTDDTAMYYCASDKYDGGWFAYWGQGTLVTVSA
VL: DIVMTQSQKFMSTSVGDRVSITCKASQNVRTAVAWYQQKPGQSPEALIYLASNRHTGVPDRFTGSGSGTDFSLSISNVQSEDLADYFCLQHLNYPLTFGSGTKLEIK
notes: Mouse monoclonal antibody from hybridoma
Regarding B1, in assay [1], binding was put at a Kd of 6.3 nM; the off-rate constant (koff) (commonly the first-order rate constant of dissociation) came to 0.021 s⁻¹; the on-rate (kon) (in general, a measure of how fast the partners come together) is 3.4e+06 M⁻¹ s⁻¹. Further, in assay [2], the Kd (usually the constant that tells how readily two partners part at equilibrium) turned out to be 2 nM, the off-rate (koff) came out at 0.00065 s⁻¹ and the kon was 330000 M⁻¹ s⁻¹.

B2: 45G10 chimera (antibody, V domains shown)
VH: EVQLVESGGGLVKPGGSLKLSCAASGFTFSDYGMHWVRQAPEKGLEWVAYIFSGSSTIYYADTVKGRFTISRDNAKNTLFLQMTSLRSEDTAMYYCARADGRGAMDYWGQGTSVTVSS
VL: DVQMTQTTSSLSASLGDRVTISCRASQDISKFLNWYQQKPDGTVTLLIYYTSRLHSGVPSRFSGSGSGTDYSLTISNLDQEDIATYFCQQGNTLPWTFGGGTKLEIK
notes: also called parental chimeric 45G10
As for B2, in assay [3], the Kd was found to be 37 nM, the koff came to 0.015 s⁻¹ and the kon came to 410000 M⁻¹ s⁻¹. Further, in assay [4], the Kd came out at 0.14 nM, the koff was 0.00034 s⁻¹ and the kon is 2.3e+06 M⁻¹ s⁻¹.

B3: Hz45G10 A2/A4 (antibody, V domains shown)
VH: EVQLVESGGGLVQPGGSLRLSCAASGFTFSDYGMHWVRQAPGKGLEWVAYIFSGSSTIYYADTVKGRFTISRDNAKNSLYLQMNSLRAEDTAVYYCARADGRGAMDYWGQGTTVTVSS
VL: DIQMTQSPSSLSASVGDRVTITCRASQDISKFLNWYQQKPGKAPKLLIYYTSRLHSGVPSRFSGSGSGTDFTFTISSLQPEDIATYFCQQGNTLPWTFGGGTKLEIK
On to B3, for which, in assay [3], the Kd amounted to 113 nM, the koff was 0.02 s⁻¹ and the kon turned out to be 190000 M⁻¹ s⁻¹. In assay [4], the dissociation constant Kd amounted to 0.2 nM, the koff came out at 0.00028 s⁻¹ and the association rate constant (kon) was determined as 1.4e+06 M⁻¹ s⁻¹.

B4: anti-ILT3 antibody 45G10 (antibody, V domains shown)
VH: EVQLVESGGGLVKPGGSLKLSCAASGFTFSDYGMHWVRQAPEKGLEWVAYIFSGSSTIYYADTVKGRFTISRDNAKNTLFLQMTSLRSEDTAMYYCARADGRGAMDYWGQGTSVTVSS
VL: DVQMTQTTSSLSASLGDRVTISCRASQDISKFLNWYQQKPDGTVTLLIYYTSRLHSGVPSRFSGSGSGTDYSLTISNLDQEDIATYFCQQGNTLPWTFGGGTKLEIK
notes: as for B1
In assay [1], B4 had a Kd of 5 nM, a koff of 0.00076 s⁻¹ and an on-rate (kon) of 150000 M⁻¹ s⁻¹. In addition, in assay [2], binding was put at a Kd of 0.13 nM, the koff came out at 5.1e-05 s⁻¹ and the kon amounted to 390000 M⁻¹ s⁻¹.

B5: Hz45G10 B1/A4 (antibody, V domains shown)
VH: EVQLVESGGGLVKPGGSLRLSCAASGFTFSDYGMHWVRQAPGKGLEWVSYIFSGSSTIYYADTVKGRFTISRDNAKNSLYLQMNSLRAEDTAVYYCARADGRGAMDYWGQGTLVTVSS
VL: DIQMTQSPSSLSASVGDRVTITCRASQDISKFLNWYQQKPGKAPKLLIYYTSRLHSGVPSRFSGSGSGTDFTFTISSLQPEDIATYFCQQGNTLPWTFGGGTKLEIK
Regarding B5, in assay [3], the Kd was 76 nM, the koff was found to be 0.09 s⁻¹ and the kon was determined as 1.2e+06 M⁻¹ s⁻¹. Besides, in assay [4], the Kd amounted to 0.2 nM, the koff is 0.00026 s⁻¹ and the kon was found to be 1.3e+06 M⁻¹ s⁻¹.

B6: anti-ILT3 antibody 12A12 (antibody, V domains shown)
VH: EVQLQQSGPELVKPGASVKISCKASGYTFTDYNMDWVKQSHGKSLEWIGYIYPNNGGTGYNQKFNSKATLTVDKSSSTAYMELHSLTSEDSAVYYCASSPYYDYVGSYAMDYWGQGTSVTVSS
VL: QIVLTQSPAIMSASLGERVTMTCTASSSVSSSYLHWYQQKPGSSPKLWIYSTSNLASGVPARFSGSGSGTSYSLTISSMEAEDAATYYCHQYHRSPRTFGGGTKLEIK
notes: as for B1
In assay [1], B6 showed a Kd of 1.9 nM, a koff of 0.00028 s⁻¹ and a kon of 150000 M⁻¹ s⁻¹. In addition, in assay [2], binding was characterised by a dissociation constant (Kd) of 8.5 nM, the koff was found to be 0.00094 s⁻¹ and the kon came to 110000 M⁻¹ s⁻¹.

B7: Hz48A6 C1/C2 (antibody, V domains shown)
VH: EVQLVESGGGLVQPGGSLRLSCAASGFTFSSYGMSWVRQAPGKGLEWVATISSGGTYTFYPDSVKGRFTISRDNSKNTLYLQMNSLRAEDTAVYYCARRGWLLHYYAMDYWGQGTLVTVSS
VL: DIQLTQSPSFLSASVGDRVTITCRPSESVDSFGNSFMHWFQQKPGKAPKLLIYLSSKLESGVPSRFSGSGSGTEFTLTISSLQPEDFATYYCQQHNEDPFTFGQGTKVEIK
Turning to B7, in assay [3], the Kd worked out at 770 nM, the koff worked out at 0.088 s⁻¹ and the kon amounted to 114000 M⁻¹ s⁻¹. Further, in assay [4], the Kd was determined as 0.26 nM, the dissociation rate constant (koff) came to 0.000705 s⁻¹ and the kon is 2.72e+06 M⁻¹ s⁻¹.

B8: Hz48A6 B0/C2 (antibody, V domains shown)
VH: EVQLVESGGGLVQPGGSLRLSCAASGFTFSSYGMSWVRQAPGKGLEWVATISSGGTYTFYPDSVKGRFTISRDNAKNSLYLQMNSLRAEDTAVYYCARRGWLLHYYAMDYWGQGTSVTVSS
VL: DIQLTQSPSFLSASVGDRVTITCRPSESVDSFGNSFMHWFQQKPGKAPKLLIYLSSKLESGVPSRFSGSGSGTEFTLTISSLQPEDFATYYCQQHNEDPFTFGQGTKVEIK
Regarding B8, in assay [3], the Kd amounted to 455 nM, the koff is 0.097 s⁻¹ and the kon turned out to be 213000 M⁻¹ s⁻¹. In addition, in assay [4], the Kd is 0.28 nM, the koff came to 0.000784 s⁻¹ and the kon amounted to 2.8e+06 M⁻¹ s⁻¹.

B9: Hz48A6 B1/C2 (antibody, V domains shown)
VH: EVQLVESGGGLMQPGGSLRLSCAASGFTFSSYGMSWVRQAPGKGLEWVATISSGGTYTFYPDSVKGRFTISRDNAKNSLYLQMNSLRAEDTAVYYCARRGWLLHYYAMDYWGQGTSVTVSS
VL: DIQLTQSPSFLSASVGDRVTITCRPSESVDSFGNSFMHWFQQKPGKAPKLLIYLSSKLESGVPSRFSGSGSGTEFTLTISSLQPEDFATYYCQQHNEDPFTFGQGTKVEIK
Consider B9, for which, in assay [3], the dissociation constant (Kd) was 531 nM, the koff worked out at 0.092 s⁻¹ and the kon stood at 174000 M⁻¹ s⁻¹. Moreover, in assay [4], the Kd was 0.25 nM, the off-rate constant (koff) amounted to 0.000764 s⁻¹ and the kon came to 3.05e+06 M⁻¹ s⁻¹.

B10: Hz48A6 C0/C2 (antibody, V domains shown)
VH: EVQLVESGGGLVQPGGSLRLSCAASGFTFSSYGMSWVRQAPGKGLEWVGTISSGGTYTFYPDSVKGRFTISRDNSKNTLYLQMNSLRAEDTAVYYCARRGWLLHYYAMDYWGQGTLVTVSS
VL: DIQLTQSPSFLSASVGDRVTITCRPSESVDSFGNSFMHWFQQKPGKAPKLLIYLSSKLESGVPSRFSGSGSGTEFTLTISSLQPEDFATYYCQQHNEDPFTFGQGTKVEIK
B10: in assay [3], the Kd turned out to be 177 nM, the koff was 0.058 s⁻¹ and the kon was 327000 M⁻¹ s⁻¹. Also, in assay [4], the Kd came out at 0.16 nM, the koff came out at 0.000541 s⁻¹ and the on-rate constant (kon) was found to be 3.45e+06 M⁻¹ s⁻¹.

B11: Hz48A6 C2/C2 (antibody, V domains shown)
VH: EVQLVESGGGLMQPGGSLRLSCAASGFTFSSYGMSWVRQAPGKGLEWVATISSGGTYTFYPDSVKGRFTISRDNSKNTLYLQMNSLRAEDTAVYYCARRGWLLHYYAMDYWGQGTLVTVSS
VL: DIQLTQSPSFLSASVGDRVTITCRPSESVDSFGNSFMHWFQQKPGKAPKLLIYLSSKLESGVPSRFSGSGSGTEFTLTISSLQPEDFATYYCQQHNEDPFTFGQGTKVEIK
In the case of B11, in assay [3], the Kd amounted to 377 nM, the koff amounted to 0.082 s⁻¹ and the kon was determined as 217000 M⁻¹ s⁻¹. For the same molecule, in assay [4], the Kd amounted to 0.24 nM, the koff came out at 0.000752 s⁻¹ and the kon was determined as 3.06e+06 M⁻¹ s⁻¹.

B12: 48A6 chimera (antibody, V domains shown)
VH: EVQLVESGGDLMKPGGSLKLSCAASGFTFSSYGMSWVRQTPDKRLEWVATISSGGTYTFYPDSVKGRFTISRDNAKNTLYLQMSSLKSEDTAMYYCARRGWLLHYYAMDYWGQGTSVTVSS
VL: NIVLTQSPASLAVSLGQRATISCRPSESVDSFGNSFMHWFQQKPGQPPKLLIYLSSKLESGVPARFSGSGSRTDFTLTIDPVEADDAATYYCQQHNEDPFTFGSGTKLEIK
notes: also called parental chimeric 48A6
Regarding B12, in assay [3], the Kd came out at 54 nM, the koff was determined as 0.11 s⁻¹ and the kon was 1.99e+06 M⁻¹ s⁻¹. In assay [4], the Kd was found to be 0.066 nM, the koff was 0.000868 s⁻¹ and the kon was 1.31e+07 M⁻¹ s⁻¹.

These data come from patent US20240043533A1 (NGM BIOPHARMACEUTICALS, published 2024).
